Measured values reported in patent US20090004214A1 (COMMISSARIAT A L ENERGIE ATOMIQUE, published 2009).
No end group written: not given here.

B1: survivin peptide 91-105 (peptide)
peptide: KQFEELTLGEFLKLD
notes: synthetic 15-mer
B2: survivin peptide 93-107 (peptide)
peptide: FEELTLGEFLKLDRE
notes: synthetic 15-mer
B3: survivin peptide 99-113 (peptide)
peptide: GEFLKLDRERAKNKI
notes: synthetic 15-mer
B4: survivin peptide 62-76 (peptide)
peptide: KELEGWEPDDDPIEE
notes: synthetic 15-mer
B5: survivin peptide 19-33 (peptide)
peptide: ISTFKNWPFLEGCAC
notes: synthetic 15-mer
B6: survivin peptide 11-25 (peptide)
peptide: QPFLKDHRISTFKNW
notes: synthetic 15-mer
B7: survivin peptide 20-34 (peptide)
peptide: STFKNWPFLEGCACT
notes: synthetic 15-mer
B8: survivin peptide 36-50 (peptide)
peptide: ERMAEAGFIHCPTEN
notes: synthetic 15-mer
B9: B1 21-36 peptide (nonbiotinylated) (peptide)
peptide: TERVRLVTRHIYNREE
modifications: not fully specified
B10: survivin peptide 102-116 (peptide)
peptide: LKLDRERAKNKIAKE
notes: synthetic 15-mer
B11: survivin peptide 23-37 (peptide)
peptide: KNWPFLEGCACTPER
notes: synthetic 15-mer
B12: survivin peptide 72-86 (peptide)
peptide: DPIEEHKKHSSGCAF
notes: synthetic 15-mer
B13: survivin peptide 4-18 (peptide)
peptide: PTLPPAWQPFLKDHR
notes: synthetic 15-mer

Each binder was assayed against T1, HLA-DR15 molecule (DRB1*1501) (human) (assay: competitive ELISA, tracer A3 152-166).
T1 construct: HLA class II heterodimer
B1 was tested, and the IC50 was 3.16 µM. Work on B2 yielded an IC50 of 0.612 µM. With B3 the IC50 was 1.2 µM. B4 showed an IC50 of 65 µM. For B5, the IC50 was 0.081 µM. B6 showed an IC50 of 0.022 µM.

What follows are binders tested against T2, HLA-DRB4 molecule (DRB4*0101) (human) (assay: competitive ELISA, tracer E2/E168).
T2 construct: HLA class II heterodimer
For B7, the IC50 was 5.5 µM. Work on B8 yielded an IC50 of 49 µM. B3 gave an IC50 of 22 µM. B5 was tested, and the IC50 was 3.12 µM. In the case of B6, the IC50 is reported as 75 µM.

Biological target: T3, HLA-DR13 molecule (DRB1*1301) (human)
T3 chain 1: not shown
T3 chain 2: not shown
Assay: competitive ELISA, tracer B1 21-36
B9 showed an IC50 of 0.609 µM.

These binders were tested against T4, HLA-DR7 molecule (DRB1*0701) (human) (assay: competitive ELISA, tracer YKL).
T4 construct: HLA class II heterodimer
Binder B7 has an IC50 of 20 µM. For B10, the IC50 was 50 µM. For B8, the IC50 was 17 µM. Binder B11 has an IC50 of 60 µM. In the case of B1, the IC50 is reported as 0.056 µM. In the case of B2, the IC50 is reported as 2.79 µM. B3 was tested, and the IC50 was 6.46 µM. B5 gave an IC50 of 0.748 µM. With B6 the IC50 was 8 µM.

The binders below were run against T5, HLA-DR3 molecule (DRB1*0301) (human) (assay: competitive ELISA, tracer MT 2-16).
T5 construct: HLA class II heterodimer
B3 gave an IC50 of 4.67 µM. B6 gave an IC50 of 65 µM.

These binders were tested against T6, HLA-DR11 molecule (DRB1*1101) (human) (assay: competitive ELISA, tracer HA 306-318).
T6 construct: HLA class II heterodimer
In the case of B10, the IC50 is reported as 8.94 µM. In the case of B8, the IC50 is reported as 5.59 µM. B11 showed an IC50 of 37 µM. B1 showed an IC50 of 2.35 µM. B2 gave an IC50 of 0.548 µM. Work on B3 yielded an IC50 of 0.04 µM. In the case of B5, the IC50 is reported as 0.147 µM. In the case of B6, the IC50 is reported as 0.329 µM.

These binders were tested against T7, HLA-DR4 molecule (DRB1*0401) (human) (assay: competitive ELISA, tracer HA 306-318).
T7 construct: HLA class II heterodimer
Binder B7 has an IC50 of 5.2 µM. B8 was tested, and the IC50 was 17 µM. In the case of B11, the IC50 is reported as 5.2 µM. With B1 the IC50 was 1.59 µM. Work on B2 yielded an IC50 of 5.5 µM. B3 was tested, and the IC50 was 2.13 µM. B5 showed an IC50 of 0.615 µM. For B6, the IC50 was 45 µM.

Each binder was assayed against T8, HLA-DRB5 molecule (DRB5*0101) (human) (assay: competitive ELISA, tracer HA 306-318).
T8 construct: HLA class II heterodimer
B10 was tested, and the IC50 was 0.018 µM. B8 showed an IC50 of 3.79 µM. With B11 the IC50 was 3.42 µM. Work on B1 yielded an IC50 of 0.145 µM. For B12, the IC50 was 6.2 µM. B2 was tested, and the IC50 was 0.529 µM. In the case of B3, the IC50 is reported as 0.022 µM. In the case of B13, the IC50 is reported as 5.48 µM. B5 showed an IC50 of 3.78 µM. B6 showed an IC50 of 2.26 µM.

Each binder was assayed against T9, HLA-DR1 molecule (DRB1*0101) (human) (assay: competitive ELISA, tracer HA 306-318).
T9 construct: HLA class II heterodimer
Work on B10 yielded an IC50 of 7.75 µM. B8 showed an IC50 of 2.55 µM. Work on B11 yielded an IC50 of 0.071 µM. Work on B1 yielded an IC50 of 0.012 µM. B12 gave an IC50 of 95 µM. Work on B2 yielded an IC50 of 0.128 µM. For B3, the IC50 was 0.048 µM. Binder B13 has an IC50 of 45 µM. B5 showed an IC50 of 0.01 µM. B6 was tested, and the IC50 was 6 µM.

Biological target: T3, HLA-DR13 molecule (DRB1*1301) (human)
Assay: competitive ELISA, nonbiotinylated peptide vs its biotinylated tracer
With B9 the IC50 was 0.8 µM.

The binders below were run against T10, HLA-DR13 molecule (DRB1*1301) (human) (assay: competitive ELISA, tracer B1 21-36).
T10 construct: HLA class II heterodimer
With B12 the IC50 was 11 µM. B2 was tested, and the IC50 was 7.8 µM. B3 was tested, and the IC50 was 9.17 µM. B13 gave an IC50 of 40 µM. B5 gave an IC50 of 9.5 µM. B6 was tested, and the IC50 was 2.41 µM.

Each binder was assayed against T11, HLA-DRB3 molecule (DRB3*0101) (human) (assay: competitive ELISA, tracer LOL 191-210).
T11 construct: HLA class II heterodimer
B1 was tested, and the IC50 was 30 µM. Binder B2 has an IC50 of 45 µM. In the case of B4, the IC50 is reported as 29 µM. B6 showed an IC50 of 3.67 µM.

These binders were tested against T12, HLA-DP401 molecule (DPB1*0401) (human, UniProt P20036 29-222, limits assumed) (assay: competitive ELISA, tracer Oxy 271-287).
T12 construct: HLA class II heterodimer; also called DP*0401
B8 gave an IC50 of 3.62 µM. B1 was tested, and the IC50 was 0.011 µM. B2 showed an IC50 of 0.02 µM. With B3 the IC50 was 40 µM. B13 gave an IC50 of 9 µM. In the case of B5, the IC50 is reported as 0.032 µM. Binder B6 has an IC50 of 33 µM.

These binders were tested against T13, HLA-DP402 molecule (DPB1*0402) (human, UniProt P20036 29-222, limits assumed) (assay: competitive ELISA, tracer Oxy 271-287).
T13 construct: HLA class II heterodimer; also called DP*0402
B8 showed an IC50 of 3.17 µM. B11 was tested, and the IC50 was 3.7 µM. With B1 the IC50 was 0.012 µM. B2 gave an IC50 of 0.067 µM. With B13 the IC50 was 3.59 µM. For B6, the IC50 was 25 µM.
